Measured values published in the Immune Epitope Database (IEDB).

Each sequence was assayed against HLA-A*02:01 (assay: IEDB peptide-MHC binding, purified MHC/competitive/radioactivity; ≥ and ≤ were set here for values at or beyond the usual limits of such assays). Conditions: source organism: Toxoplasma gondii GT1.

Q: With ALAALAPSLEV as the sequence, how does the IC50 read?
A: Its IC50 is 1000 nM.

Q: For ALDINLPNV, which IC50 is on record?
A: Its IC50 is 500 nM.

Q: FVLELEPEWTV was tested. Which IC50 did it give?
A: The IC50 was 10 nM.

Q: Which IC50 does the source give for GLAETEVPV here?
A: Its IC50 is 500 nM.

Q: HLMDEAVEV was tested. Which IC50 did it give?
A: The IC50 was 500 nM.

Q: For LLSDLSVRL, which IC50 is on record?
A: Its IC50 is 500 nM.

Q: With MLYAGAPTTV as the sequence, how does the IC50 read?
A: The IC50 was 100 nM.

Q: VMSELEFYL was tested. Which IC50 did it give?
A: The IC50 was 100 nM.

Q: YLFKEGVIVV was tested. Which IC50 did it give?
A: The IC50 was 500 nM.

Q: For YLSPIASPLL, which IC50 is on record?
A: The IC50 was 100 nM.
